Reference: US8697386B2, “Methods and compositions for modulating hepsin activation of macrophage-stimulating protein” (Genentech, Inc., priority 2009, dated 2014)
“Also recorded” adds a separate entry of the source.

T1: human Ron (Homo sapiens, UniProt Q04912)
T1 construct: the Ron (Sema IPT1)-IgG fusion protein was captured
T1 sequence (Q04912 25-683 limits assumed): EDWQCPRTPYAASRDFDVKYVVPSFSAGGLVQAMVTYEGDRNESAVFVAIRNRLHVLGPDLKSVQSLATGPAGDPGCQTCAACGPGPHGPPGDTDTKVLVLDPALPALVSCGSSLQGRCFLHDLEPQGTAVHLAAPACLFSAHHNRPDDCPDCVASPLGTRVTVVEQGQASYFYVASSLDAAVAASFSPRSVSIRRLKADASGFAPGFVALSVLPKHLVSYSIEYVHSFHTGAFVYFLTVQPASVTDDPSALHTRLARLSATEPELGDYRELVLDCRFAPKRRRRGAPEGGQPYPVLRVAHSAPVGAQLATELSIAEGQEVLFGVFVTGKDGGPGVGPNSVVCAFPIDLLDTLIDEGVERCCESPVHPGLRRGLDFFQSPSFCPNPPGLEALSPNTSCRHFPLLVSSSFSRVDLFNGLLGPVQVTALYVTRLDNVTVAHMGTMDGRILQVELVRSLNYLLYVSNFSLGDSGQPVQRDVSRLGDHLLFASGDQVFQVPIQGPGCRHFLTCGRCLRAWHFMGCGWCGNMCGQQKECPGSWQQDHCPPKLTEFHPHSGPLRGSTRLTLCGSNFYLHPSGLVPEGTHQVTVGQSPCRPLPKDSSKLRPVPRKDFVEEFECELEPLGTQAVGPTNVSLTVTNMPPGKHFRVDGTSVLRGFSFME


Experiments:
bone marrow macrophages = experiment: Inhibition of nitric oxide (NO) synthesis in bone marrow macrophages; assay type: cell-based, mouse; conditions: MSP/pro-MSP 10 ng/ml, hepsin 1 nM, 24 hours, Griess reaction
Protocol: Inhibition of NO synthesis by mature MSP: Bone marrow cells obtained from collected mouse femurs were pipetted to a single-cell suspension and then spun down. Red blood cells were lysed by incubation with erythrocyte lysis buffer for 5 minutes at room temperature. Cells were then suspended in macrophage differentiation medium (DMEM with glutamine containing 10% FBS, Pen/Strep and 50 ng/ml recombinant mCSF-1). Cells were then plated onto sterile 24-well non-tissue culture dishes. Medium was changed the next day and subsequently every 2 days. After 6 days in culture, the macrophages were mature and these mature cells were washed in serum-free DMEM and further incubated for 2 hours. Different reactions (total volume 300 μL) as indicated in the figure consisting of recombinant MSP (10 ng/ml), pro-MSP (10 ng/ml), hepsin (1 nM) and Fab25 (500 nM) were added to the respective wells and cultured for 24 hours at 37° C. in a tissue culture incubator. NO production was quantified using Griess reaction (Molecular Probes) according to manufacturer's recommendation.

human Ron = biological target: T1, human Ron; experiment: Binding to Ron by surface plasmon resonance (BIAcore); conditions: SPR; for detectable binding to Ron: up to a concentration of 1 μM
Protocol: Binding of hepsin-activated pro-MSP to Ron by surface plasmon resonance and ELISA: To determine binding affinity of hepsin-activated MSP to human Ron, surface plasmon resonance measurements on a BIAcore™-3000 instrument (GE Health Care, NJ) were performed. Rabbit anti-human IgG were chemically immobilized (amine coupling) on CM5 biosensor chips and the Ron (Sema IPT1)-IgG fusion protein was captured to give approximately 250 response units (RU). For kinetics measurements, different concentration of either hepsin-activated MSP or a commercially available MSP (R&D systems) were injected in HBS-P buffer at 25° C. with a flow rate of 30 μl/min. Association rates (kon) and dissociation rates (koff) were obtained by using a simple one-to-one Langmuir binding model (BIA-Evaluation) and the equilibrium dissociation constants (KD) were calculated (koff/kon). For ELISA experiments, maxiSorp microtiter plates (Nunc, Roskilde, Denmark) were coated overnight at 4° C. with 2 μg/ml of rabbit anti-human IgG Fc specific antibody (Jackson ImmunoResearch Laboratory, West Grove, Pa.) in 50 mM sodium carbonate buffer, pH 9.6. After blocking with assay buffer (PBS pH 7.4, 0.5% BSA and 0.05% Tween-20, 15 PPM Proclin), 1 μg/ml Ron (Sema IPT1)-IgG fusion protein was added and plates were incubated for 1 hour with gentle shaking at room temperature. After washing with wash buffer (PBS, 0.05% polysorbate 20), His tagged MSP proteins were added for 1 hour. Bound MSP was detected using anti-His-HRP (Qiagen, Valencia, Calif.) followed by addition of TMB/H2O2 substrate (KPL, Gaithersburg, Md.). The reaction was stopped with 1M H3PO4 and the A450 was measured on a Molecular Devices (Sunnyvale, Calif.) SpectraMax Plus^384 microplate reader. The effective concentration to give half-maximal binding (EC50) was determined by a four parameter fit using Kaleidagraph (Synergy Software, Reading, Pa.).

hepsin = biological target: T2, hepsin (Homo sapiens, UniProt P05981); experiment: In vitro activation of pro-MSP by recombinant hepsin (SDS-PAGE); assay type: biochemical; conditions: 25 μg/ml substrate, hepsin 1.25-10 nM, 37° C., SDS-PAGE reducing; mutant up to 24 hours
T2 construct: The extracellular domain of the human recombinant hepsin was expressed and purified as described; made in house
T2 sequence (P05981 45-417 limits assumed): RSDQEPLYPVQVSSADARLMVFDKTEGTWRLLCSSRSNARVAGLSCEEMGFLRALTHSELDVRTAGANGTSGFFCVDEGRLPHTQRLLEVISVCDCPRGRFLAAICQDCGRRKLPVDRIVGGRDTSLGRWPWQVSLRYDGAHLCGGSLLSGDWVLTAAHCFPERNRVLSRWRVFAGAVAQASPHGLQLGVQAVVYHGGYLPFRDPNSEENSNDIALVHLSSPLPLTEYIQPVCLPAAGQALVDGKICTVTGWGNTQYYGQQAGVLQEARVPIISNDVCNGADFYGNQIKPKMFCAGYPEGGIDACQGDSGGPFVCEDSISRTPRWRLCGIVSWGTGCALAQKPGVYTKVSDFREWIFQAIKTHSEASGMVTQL
Protocol: Analysis of in vitro activation of pro-msp by hepsin using sds-page: Pro-MSP (25 μg/ml) was incubated with different concentrations of hepsin (1.25 nM, 2.5 nM, 5 nM and 10 nM) in a buffer containing 50 mM Tris-HCl pH 8.0, 150 mM NaCl, 0.05% Triton-X100 and 2 mM CaCl2 at 37° C. Aliquots of the reaction mixture at different time points were mixed 6×-SDS sample buffer and the samples were boiled for 5 minutes at 95° C. and separated by SDS-PAGE using a 4-20% gradient gel. Protein was visualized after staining with SimplyBlue Safe Stain (Invitrogen, Carlsbad, Calif.). Similar experiments were performed with the pro-MSP that was mutated to render it uncleavable at Arg483-Val484(pro-MSP-R483E) to assess if proteolytic cleavage site occurs at a different site apart from the expected Arg483-Val484 bond in pro-MSP.

Ron signaling pathway = experiment: Immunoblot for phosphorylated downstream kinases in A2780 cells overexpressing human Ron; assay type: cell-based; conditions: pro-MSP 10 and 50 ng/ml, 10 nM hepsin, 1 hour
Protocol: Immunoblot for the detection of phosphorylated kinases: A human ovarian carcinoma cell line (A2780) overexpressing human Ron was used to study the phosphorylation of Ron and other downstream kinase. Cells at a density of 2×10^5 cells/well were cultured in 12-well plate and serum-starved for 24 hours. The cells were then stimulated with either pro-MSP (10 and 50 ng/ml) alone or in presence of 10 nM Hepsin for 1 hour. Mature MSP from a commercial source and hepsin were used as controls. Samples were prepared by washing cells twice with cold PBS followed by addition of 200 ul lysis buffer. Samples were then analyzed by SDS/PAGE on 4-12% Tris-glycine gels (Invitrogen, Carlsbad, Calif.). Proteins were transferred onto nitrocellulose membranes and subsequently treated with anti-Ron antibody or anti-phospho-AKT antibody or anti-phospho-MAPK antibody or anti-phospho-S6 antibody, overnight at 4° C. After washing, membranes were incubated with IRDye800-conjugated goat anti-mouse IgG (Rockland, Gilbertsville, Pa.) and AlexaFluor 680 goat anti-rabbit IgG (Invitrogen) for 1 h. Proteins were detected with the Odyssey Infrared Imaging System (LI-COR Biosciences, Lincoln, Nebr.).

| Kd (human Ron; Ron-Fc captured on CM5 chip, 1:1 binding model, 25° C., read-out: KD, binding affinity to Ron) | Molecule | effect on NO production in response to LPS (bone marrow macrophages) | detectable binding to Ron (human Ron) | proteolytic cleavage/activation by hepsin (hepsin) | phosphorylation of MAP kinase and S6 kinase (activation of Ron signaling pathway) (Ron signaling pathway) |
| --- | --- | --- | --- | --- | --- |
| – | pro-MSP: inactive single-chain precursor of MSP; recombinant human MSP with C672A mutation expressed in Chinese Hamster Ovary cells (protein, listed as Homo sapiens) MGWLPLLLLLTQCLGVPGQRSPLNDFQVLRGTELQHLLHAVVPGPWQEDVADAEECAGRCGPLMDCRAFHYNVSSHGCQLLPWTQHSPHTRLRRSGRCDLFQKKDYVRTCIMNNGVGYRGTMATTVGGLPCQAWSHKFPNDHKYTPTLRNGLEENFCRNPDGDPGGPWCYTTDPAVRFQSCGIKSCREAACVWCNGEEYRGAVDRTESGRECQRWDLQHPHQHPFEPGKFLDQGLDDNYCRNPDGSERPWCYTTDPQIEREFCDLPRCGSEAQPRQEATTVSCFRGKGEGYRGTANTTTAGVPCQRWDAQIPHQHRFTPEKYACKDLRENFCRNPDGSEAPWCFTLRPGMRAAFCYQIRRCTDDVRPQDCYHGAGEQYRGTVSKTRKGVQCQRWSAETPHKPQFTFTSEPHAQLEENFCRNPDGDSHGPWCYTMDPRTPFDYCALRRCADDQPPSILDPPDQVQFEKCGKRVDRLDQRRSKLRVVGGHPGNSPWTVSLRNRQGQHFCGGSLVKEQWILTARQCFSSCHMPLTGYEVWLGTLFQNPQHGEPSLQRVPVAKMVCGPSGSQLVLLKLERSVTLNQRVALICLPPEWYVVPPGTKCEIAGWGETKGTGNDTVLNVALLNVISNQECNIKHRGRVRESEMCTEGLLAPVGACEGDYGGPLACFTHNAWVLEGIIIPNRVCARSRWPAVFTRVSVFVDWIHKVMRLG | did not inhibit | Neither pro-MSP nor the cleavage site mutant (pro-MSP-R483E) had any detectable binding; also recorded: No detectable binding | activated pro-MSP in a dose-dependent and time dependent manner | Neither hepsin nor pro-MSP alone was effective |
| 4.4 nM | commercially available MSP: recombinant active form of human MSP (R&D Systems) (protein) chain 1: QRSPLNDFQVLRGTELQHLLHAVVPGPWQEDVADAEECAGRCGPLMDCRAFHYNVSSHGCQLLPWTQHSPHTRLRRSGRCDLFQKKDYVRTCIMNNGVGYRGTMATTVGGLPCQAWSHKFPNDHKYTPTLRNGLEENFCRNPDGDPGGPWCYTTDPAVRFQSCGIKSCREAACVWCNGEEYRGAVDRTESGRECQRWDLQHPHQHPFEPGKFLDQGLDDNYCRNPDGSERPWCYTTDPQIEREFCDLPRCGSEAQPRQEATTVSCFRGKGEGYRGTANTTTAGVPCQRWDAQIPHQHRFTPEKYACKDLRENFCRNPDGSEAPWCFTLRPGMRAAFCYQIRRCTDDVRPQDCYHGAGEQYRGTVSKTRKGVQCQRWSAETPHKPQFTFTSEPHAQLEENFCRNPDGDSHGPWCYTMDPRTPFDYCALRRCADDQPPSILDPPDQVQFEKCGKRVDRLDQRRSKLR chain 2: VVGGHPGNSPWTVSLRNRQGQHFCGGSLVKEQWILTARQCFSSCHMPLTGYEVWLGTLFQNPQHGEPSLQRVPVAKMVCGPSGSQLVLLKLERSVTLNQRVALICLPPEWYVVPPGTKCEIAGWGETKGTGNDTVLNVALLNVISNQECNIKHRGRVRESEMCTEGLLAPVGACEGDYGGPLACFTHNCWVLEGIIIPNRVCARSRWPAVFTRVSVFVDWIHKVMRLG | – | – | – | – |
| – | pro-MSP-R483E: pro-MSP mutated to render it uncleavable at Arg483-Val484 (protein) QRSPLNDFQVLRGTELQHLLHAVVPGPWQEDVADAEECAGRCGPLMDCRAFHYNVSSHGCQLLPWTQHSPHTRLRRSGRCDLFQKKDYVRTCIMNNGVGYRGTMATTVGGLPCQAWSHKFPNDHKYTPTLRNGLEENFCRNPDGDPGGPWCYTTDPAVRFQSCGIKSCREAACVWCNGEEYRGAVDRTESGRECQRWDLQHPHQHPFEPGKFLDQGLDDNYCRNPDGSERPWCYTTDPQIEREFCDLPRCGSEAQPRQEATTVSCFRGKGEGYRGTANTTTAGVPCQRWDAQIPHQHRFTPEKYACKDLRENFCRNPDGSEAPWCFTLRPGMRAAFCYQIRRCTDDVRPQDCYHGAGEQYRGTVSKTRKGVQCQRWSAETPHKPQFTFTSEPHAQLEENFCRNPDGDSHGPWCYTMDPRTPFDYCALRRCADDQPPSILDPPDQVQFEKCGKRVDRLDQRRSKLEVVGGHPGNSPWTVSLRNRQGQHFCGGSLVKEQWILTARQCFSSCHMPLTGYEVWLGTLFQNPQHGEPSLQRVPVAKMVCGPSGSQLVLLKLERSVTLNQRVALICLPPEWYVVPPGTKCEIAGWGETKGTGNDTVLNVALLNVISNQECNIKHRGRVRESEMCTEGLLAPVGACEGDYGGPLACFTHNAWVLEGIIIPNRVCARSRWPAVFTRVSVFVDWIHKVMRLG | – | Neither pro-MSP nor the cleavage site mutant (pro-MSP-R483E) had any detectable binding | did not cleave | – |
